Measured values from patent publication US8247535B2, “Directed evolution of GRG31 EPSP synthase enzyme” (Athenix Corp., priority 2008, dated 2012).

Legend:
GRG31 EPSP synthase [1] = assay: Extract prescreens of library clones at a few glyphosate and PEP concentrations; type: biochemical; conditions: extracts; for activity in glyphosate prescreen: 0, 1, and 2 mM glyphosate, among 31 resistant clones
Procedure: Library 1 was cloned into pAX3625 and 130,000 clones were plated onto plates containing 50 mM glyphosate. […] Extracts were prepared and assessed for glyphosate resistance by assaying activity in the presence of a small number of glyphosate concentrations (0, 1, and 2 mM glyphosate).
Extracts from these six clones were assayed for activity at a range of PEP concentrations (0, 20, 50, and 100 μM PEP).
One hundred and fifteen thousand (115,000) clones were plated onto plates containing 50 mM glyphosate and 384 glyphosate resistant clones were picked for sequencing. […] A Ki assessment of the unique clones was carried out by testing activity at 0 and 0.2 mM glyphosate. […] An assessment of the Km of protein encoded by these nine clones was performed by comparing activity at 0, 20, and 50 μM PEP.

GRG31 EPSP synthase [2] = assay: Kinetic analysis of GRG31 variants (Ki for glyphosate, Km for PEP, Vmax); type: biochemical; parameters: Vmax: unit not given here; conditions: for Ki: Ki for glyphosate, calculated from plot of Km(app) vs. glyphosate concentration; for Km: Km for PEP; for Vmax: unit not given
Procedure: GRG31 variants L3P2b11, L3P2c11 and L4e11, and L5e3 were characterized by enzymatic assays as described herein, and compared to the native GRG31 enzyme. For each enzyme the apparent Km (Km(app)) was determined at each of several glyphosate concentrations, and a plot of Km(app) vs. glyphosate concentration was used to calculate the Ki for each enzyme. The thermostability for each enzyme was assessed by incubating the enzyme at 37° C. for 16 hours, and then quantifying the enzymatic activity remaining (as Vmax) vs. control enzyme that was incubated at 4° C.

Row | Molecule | activity in glyphosate prescreen (GRG31 EPSP synthase [1]) | Ki (GRG31 EPSP synthase [2]) | Km (GRG31 EPSP synthase [2]) | Vmax (GRG31 EPSP synthase [2]) | other results
1 | GRG31pm3a11: GRG31 Q-loop library 1 variant, SEQ ID NO:7 (protein, GRG31 variant (clone GRG31pm3a11)) MNQQVITLTHPSKKIQGTVQLTGSKSESNRALIIQSLSKGQVEIANLSEAADTVTLNRVLQIASDPKPGFNTIDCGNAGTSVRFLTGFLNLVKGNFILTGTERMQQRPIGILVDAMKEIGADIHYDKKVGYPPLKIEGGLFQEKDRVKIKGNISSQYISALLLIAPALKKGLTLEIEGELTSRPYVSMTLDMLKSVGIQHEWKNNAIKIAPQAFEKQTIYVEPDWSAASYWYAIAALADANASIVLPGLRKNSLQGDIAIISIMEHFGVQSSFESDGLHLNKKVIGSDVSLFNFKECPDLAQTVVVVAAALKRDVSFTGLETLKIKETDRIAALQKEIAKFGAELIEDGDTYHLKTAQVYQPEEVTFDTYEDHRMAMAFAPLALVFDQIKIAEPQVVEKSYPDFWNHLQAQAFVIE | best activity | – | – | – | activity at low PEP concentrations (GRG31 EPSP synthase [1]; 0, 20, 50, and 100 μM PEP, among six clones): best activity at low PEP concentrations
2 | L3P2b11 + triple EK: GRG31 variant P77→Q; A81→S; M82→L; Y88→F; N95→S, A206→V; E215→K, SEQ ID NO:24 (protein, GRG31 variant (L3P2b11+triple EK)) MNQQVITLTHPSKKIQGTVQLTGSKSESNRALIIQSLSKGQVEIANLSEAADTVTLNRVLQIASDPKPGFNTIDIGQAGTSLRFLTAFLNLVKGSFILTGTERMQQRPIGILVDAMKEIGADIHYDKKVGYPPLKIEGGLFQEKDRVKIKGNISSQYISALLLIAPALKKGLTLEIEGELTSRPYVSMTLDMLKSVGIQHEWKNNVIKIAPQAFKKQTIYVEPDWSAASYWYAIAALADANASIVLPGLRKNSLQGDIAIISIMEHFGVQSSFESDGLHLNKKVIGSDVSLFNFKECPDLAQTVVVVAAALKRDVSFTGLETLKIKETDRIAALQKEIAKFGAELIEDGDTYHLKTAQVYQPEEVTFDTYEDHRMAMAFAPLALVFDQIKIAEPQVVEKSYPDFWNHLQAQAFVIE | – | 606 µM | 12.3 µM | 0.72 | –
3 | L3P2c11 + 6e7: GRG31 variant Y88→F; E215→K, SEQ ID NO:21 (protein, GRG31 variant (L3P2c11+6e7)) MNQQVITLTHPSKKIQGTVQLTGSKSESNRALIIQSLSKGQVEIANLSEAADTVTLNRVLQIASDPKPGFNTIDIGPAGTAMRFLTAFLNLVKGNFILTGTERMQQRPIGILVDAMKEIGADIHYDKKVGYPPLKIEGGLFQEKDRVKIKGNISSQYISALLLIAPALKKGLTLEIEGELTSRPYVSMTLDMLKSVGIQHEWKNNAIKIAPQAFKKQTIYVEPDWSAASYWYAIAALADANASIVLPGLRKNSLQGDIAIISIMEHFGVQSSFESDGLHLNKKVIGSDVSLFNFKECPDLAQTVVVVAAALKRDVSFTGLETLKIKETDRIAALQKEIAKFGAELIEDGDTYHLKTAQVYQPEEVTFDTYEDHRMAMAFAPLALVFDQIKIAEPQVVEKSYPDFWNHLQAQAFVIE | – | 416 µM | 8.6 µM | 23.5 | Vmax improvement over the GRG31(L3P2c11) protein (GRG31 EPSP synthase [2]; relative to GRG31(L3P2c11), in words): about four to five-fold; Vmax relative to GRG31 (GRG31 EPSP synthase [2]; relative to GRG31, in words): approximately equal to that of GRG31; improvement in Ki for glyphosate relative to GRG31 (GRG31 EPSP synthase [2]; relative to GRG31, in words): more than four-fold; improvement in Km for PEP relative to GRG31 (GRG31 EPSP synthase [2]; relative to GRG31, in words): approximately two-fold
4 | GRG31pm3b9: GRG31 Q-loop library 1 variant, SEQ ID NO:11 (protein, GRG31 variant (clone GRG31pm3b9)) MNQQVITLTHPSKKIQGTVQLTGSKSESNRALIIQSLSKGQVEIANLSEAADTVTLNRVLQIASDPKPGFNTIDCDAAGTSMRFLAAYLNLVKGNFILTGTERMQQRPIGILVDAMKEIGADIHYDKKVGYPPLKIEGGLFQEKDRVKIKGNISSQYISALLLIAPALKKGLTLEIEGELTSRPYVSMTLDMLKSVGIQHEWKNNAIKIAPQAFEKQTIYVEPDWSAASYWYAIAALADANASIVLPGLRKNSLQGDIAIISIMEHFGVQSSFESDGLHLNKKVIGSDVSLFNFKECPDLAQTVVVVAAALKRDVSFTGLETLKIKETDRIAALQKEIAKFGAELIEDGDTYHLKTAQVYQPEEVTFDTYEDHRMAMAFAPLALVFDQIKIAEPQVVEKSYPDFWNHLQAQAFVIE | best activity | – | – | – | –
5 | L3P2b11 + 6b2: GRG31 variant P77→Q; A81→S; M82→L; Y88→F; N95→S, A206→V, SEQ ID NO:26 (protein, GRG31 variant (L3P2b11+6b2)) MNQQVITLTHPSKKIQGTVQLTGSKSESNRALIIQSLSKGQVEIANLSEAADTVTLNRVLQIASDPKPGFNTIDIGQAGTSLRFLTAFLNLVKGSFILTGTERMQQRPIGILVDAMKEIGADIHYDKKVGYPPLKIEGGLFQEKDRVKIKGNISSQYISALLLIAPALKKGLTLEIEGELTSRPYVSMTLDMLKSVGIQHEWKNNVIKIAPQAFEKQTIYVEPDWSAASYWYAIAALADANASIVLPGLRKNSLQGDIAIISIMEHFGVQSSFESDGLHLNKKVIGSDVSLFNFKECPDLAQTVVVVAAALKRDVSFTGLETLKIKETDRIAALQKEIAKFGAELIEDGDTYHLKTAQVYQPEEVTFDTYEDHRMAMAFAPLALVFDQIKIAEPQVVEKSYPDFWNHLQAQAFVIE | – | 628 µM | 8 µM | 0.59 | –
6 | GRG31pm3a8: GRG31 Q-loop library 1 variant, SEQ ID NO:9 (protein, GRG31 variant (clone GRG31pm3a8)) MNQQVITLTHPSKKIQGTVQLTGSKSESNRALIIQSLSKGQVEIANLSEAADTVTLNRVLQIASDPKPGFNTIDCGPAGTGVRFLTAFLNLVKGNFILTGTERMQQRPIGILVDAMKEIGADIHYDKKVGYPPLKIEGGLFQEKDRVKIKGNISSQYISALLLIAPALKKGLTLEIEGELTSRPYVSMTLDMLKSVGIQHEWKNNAIKIAPQAFEKQTIYVEPDWSAASYWYAIAALADANASIVLPGLRKNSLQGDIAIISIMEHFGVQSSFESDGLHLNKKVIGSDVSLFNFKECPDLAQTVVVVAAALKRDVSFTGLETLKIKETDRIAALQKEIAKFGAELIEDGDTYHLKTAQVYQPEEVTFDTYEDHRMAMAFAPLALVFDQIKIAEPQVVEKSYPDFWNHLQAQAFVIE | best activity | – | – | – | –
7 | GRG31pm3a6: GRG31 Q-loop library 1 variant, SEQ ID NO:8 (protein, GRG31 variant (clone GRG31pm3a6)) MNQQVITLTHPSKKIQGTVQLTGSKSESNRALIIQSLSKGQVEIANLSEAADTVTLNRVLQIASDPKPGFNTIDCGNAGTSMRFLTAVLNLVKGNFILTGTERMQQRPIGILVDAMKEIGADIHYDKKVGYPPLKIEGGLFQEKDRVKIKGNISSQYISALLLIAPALKKGLTLEIEGELTSRPYVSMTLDMLKSVGIQHEWKNNAIKIAPQAFEKQTIYVEPDWSAASYWYAIAALADANASIVLPGLRKNSLQGDIAIISIMEHFGVQSSFESDGLHLNKKVIGSDVSLFNFKECPDLAQTVVVVAAALKRDVSFTGLETLKIKETDRIAALQKEIAKFGAELIEDGDTYHLKTAQVYQPEEVTFDTYEDHRMAMAFAPLALVFDQIKIAEPQVVEKSYPDFWNHLQAQAFVIE | best activity | – | – | – | –
8 | L4e11: GRG31 variant I75→C; A78→S; Y88→H, SEQ ID NO:16 (protein, GRG31 variant (clone 4e11)) MNQQVITLTHPSKKIQGTVQLTGSKSESNRALIIQSLSKGQVEIANLSEAADTVTLNRVLQIASDPKPGFNTIDCGPSGTAMRFLTAHLNLVKGNFILTGTERMQQRPIGILVDAMKEIGADIHYDKKVGYPPLKIEGGLFQEKDRVKIKGNISSQYISALLLIAPALKKGLTLEIEGELTSRPYVSMTLDMLKSVGIQHEWKNNAIKIAPQAFEKQTIYVEPDWSAASYWYAIAALADANASIVLPGLRKNSLQGDIAIISIMEHFGVQSSFESDGLHLNKKVIGSDVSLFNFKECPDLAQTVVVVAAALKRDVSFTGLETLKIKETDRIAALQKEIAKFGAELIEDGDTYHLKTAQVYQPEEVTFDTYEDHRMAMAFAPLALVFDQIKIAEPQVVEKSYPDFWNHLQAQAFVIE | – | 389 µM | 12.4 µM | 3.5 | improvement in Ki for glyphosate relative to GRG31 (GRG31 EPSP synthase [2]; relative to GRG31, in words): improved
9 | L3P2b11 + 6e7: GRG31 variant P77→Q; A81→S; M82→L; Y88→F; E215→K, SEQ ID NO:22 (protein, GRG31 variant (L3P2b11+6e)) MNQQVITLTHPSKKIQGTVQLTGSKSESNRALIIQSLSKGQVEIANLSEAADTVTLNRVLQIASDPKPGFNTIDIGQAGTSLRFLTAFLNLVKGNFILTGTERMQQRPIGILVDAMKEIGADIHYDKKVGYPPLKIEGGLFQEKDRVKIKGNISSQYISALLLIAPALKKGLTLEIEGELTSRPYVSMTLDMLKSVGIQHEWKNNAIKIAPQAFKKQTIYVEPDWSAASYWYAIAALADANASIVLPGLRKNSLQGDIAIISIMEHFGVQSSFESDGLHLNKKVIGSDVSLFNFKECPDLAQTVVVVAAALKRDVSFTGLETLKIKETDRIAALQKEIAKFGAELIEDGDTYHLKTAQVYQPEEVTFDTYEDHRMAMAFAPLALVFDQIKIAEPQVVEKSYPDFWNHLQAQAFVIE | – | 1010 µM | 10.3 µM | 0.86 | –
